Source: PMC8504119

Molecular target: tetrameric biotin non-binding streptavidin 'Dead' (SA-4D) (UniProt P22629)
Experiment: SDS-PAGE without boiling; refolded, purified SA-A and SA-D; samples not subjected to thermal denaturation keep the tetramer

stoichiometry N: 4
Substance: tetrameric biotin non-binding streptavidin 'Dead' (SA-4D) (from UniProt P22629 25-183) (natural protein)
